In experiment [1] the target is HLA-B*51:01. Description: IEDB peptide-MHC binding, purified MHC/direct/fluorescence; filed as Kd, often an IC50 or EC50 that approximates it; ≥ and ≤ were set here for values at or beyond the usual limits of such assays.
For experiment [2], the target named is HLA-C*03:03. Described as above.
Experiment [3] addresses HLA-C*14:02. The description is as above. Particulars: source organism: Human immunodeficiency virus 1.
For experiment [4], the target named is HLA-A*02:01. The experiment is described as follows: IEDB peptide-MHC binding, purified MHC/competitive/fluorescence; filed as Kd, often an IC50 or EC50 that approximates it; ≥ and ≤ were set here for values at or beyond the usual limits of such assays.
For experiment [5], the target named is HLA-A*02:03. The description is as above. Particulars: source organism: Human immunodeficiency virus 1.
Experiment [6] deals with HLA-A*02:06. Described as above. Particulars: source organism: Human immunodeficiency virus 1.
Experiment [7] has as its target HLA-A*02:11. Described as above. Particulars: source organism: Human immunodeficiency virus 1.
Experiment [8] deals with HLA-A*02:12. The description is as above. The settings on record: source organism: Human immunodeficiency virus 1.
In experiment [9] the target is HLA-A*02:16. The experiment is described as above. Particulars: source organism: Human immunodeficiency virus 1.
Experiment [10] addresses HLA-A*02:19. The experiment is described as above. The settings on record: source organism: Human immunodeficiency virus 1.
Experiment [11] deals with HLA-A*69:01. The description is as above. The settings on record: source organism: Human immunodeficiency virus 1.
For experiment [12], the target named is HLA-A*02:01. The experiment is described as follows: IEDB peptide-MHC binding, purified MHC/competitive/fluorescence; ≥ and ≤ were set here for values at or beyond the usual limits of such assays.
Experiment [13] has as its target HLA-A*24:02. Described as above.
The target in experiment [14] is HLA-B*07:02. Described as above.
For experiment [15], the target named is HLA-B*08:01. Described as above.
Experiment [16] addresses HLA-B*15:01. Described as above.
The target of experiment [17] is HLA-A*01:01. Description: IEDB peptide-MHC binding, purified MHC/direct/fluorescence; filed as Kd, often an IC50 or EC50 that approximates it; ≥ and ≤ were set here for values at or beyond the usual limits of such assays.
The target in experiment [18] is HLA-A*02:01. Described as above.
Experiment [19] has as its target HLA-A*03:01. Described as above.
Experiment [20] addresses HLA-A*11:01. Described as above.
In experiment [21] the target is HLA-A*24:02. The experiment is described as above.
For experiment [22], the target named is HLA-A*31:01. The description is as above.
For experiment [23], the target named is HLA-A*69:01. The experiment is described as above.
Experiment [24] concerns the target HLA-B*07:02. Described as above.
Experiment [25] deals with HLA-B*08:02. The description is as above.
In experiment [26] the target is HLA-B*15:01. Described as above.
For experiment [27], the target named is HLA-B*18:01. The description is as above.
The target of experiment [28] is HLA-B*27:05. The description is as above.
The target in experiment [29] is HLA-B*40:01. The description is as above.
Experiment [30] deals with HLA-B*44:02. Described as above.
Experiment [31] addresses HLA-B*46:01. The experiment is described as above.
For experiment [32], the target named is HLA-B*58:01. The description is as above.
Experiment [33] addresses HLA-A*01:01. Description: IEDB peptide-MHC binding, purified MHC/competitive/fluorescence; filed as Kd, often an IC50 or EC50 that approximates it; ≥ and ≤ were set here for values at or beyond the usual limits of such assays. Particulars: source organism: Influenza A virus (A/Harbin/1/1988(H1N2)).
Experiment [34] concerns the target HLA-B*08:01. The experiment is described as follows: IEDB peptide-MHC binding, purified MHC/direct/fluorescence; filed as Kd, often an IC50 or EC50 that approximates it; ≥ and ≤ were set here for values at or beyond the usual limits of such assays. The settings on record: source organism: Vibrio parahaemolyticus AQ3810.
Experiment [35] addresses HLA-B*15:09. The experiment is described as above.
Experiment [36] addresses HLA-A*02:12. Described as above. The settings on record: source organism: Ravn virus - Ravn, Kenya, 1987.
The target of experiment [37] is HLA-C*12:03. The description is as above.
Experiment [38] concerns the target HLA-A*03:01. Description: IEDB peptide-MHC binding, purified MHC/competitive/fluorescence; ≥ and ≤ were set here for values at or beyond the usual limits of such assays. Particulars: source organism: Vaccinia virus WR.
Setting [39] is: source organism: Vaccinia virus Copenhagen.
The mark [40] stands for this setting: source organism: Coxiella burnetii.
Where [41] appears, read: source organism: Vibrio parahaemolyticus.
[42] abbreviates: source organism: Vibrio parahaemolyticus AQ3810.
Where [43] appears, read: source organism: Rickettsia bellii.
Setting [44] is: source organism: Marburg virus - Musoke, Kenya, 1980.
[45] abbreviates: source organism: dengue virus type 4.
Setting [46] is: source organism: Influenza A virus (A/Hong Kong/532/1997(H5N1)).
The mark [47] stands for this setting: source organism: Vaccinia virus WR.
The mark [48] stands for this setting: source organism: Zaire ebolavirus.

A value given as a limit tells only on which side of the number the result lay.

Broadly, the Kd is the constant that tells how readily two partners part at equilibrium. Low readings indicate higher affinity, high ones lower affinity. In the case of LANYAFFAI, the Kd in experiment [1] (source organism: Streptococcus pneumoniae) was 230 nM; in experiment [2] (source organism: Streptococcus pneumoniae R6), at most 1 nM.
In turn, AFHHVAREL returned a Kd in experiment [3] of at most 1 nM.
Regarding SLADQLIHL, the Kd in experiment [4] (source organism: Human immunodeficiency virus 1) was 42.5 nM; in [5], 0.86 nM; in experiment [6], at most 0.1 nM; in experiment [7], 0.145 nM; in [8], 2.85 nM; in experiment [9], 0.6 nM. Besides, the figures for the Kd in experiment [10] and in [11] were 4.67 nM and 277 nM, respectively.
Usually IC50 stands for the concentration at which inhibition is half-maximal. A low value points to greater potency. For LAKAIITPI, the IC50 in [12] (setting [39]) was 13.7 µM; in experiment [13] (setting [39]), 6280 nM; in [14] (setting [39]), 56.1 µM; in experiment [15] (setting [39]), at least 138 µM; in experiment [16] (setting [39]), 24.5 µM.
For AISRLRTQK, the Kd in [17] (setting [40]) was at least 20000 nM; in experiment [18] (setting [40]), at least 20 µM; in [19] (setting [40]), 0.386 µM; in [20] (setting [40]), 0.0995 µM; in [21] (setting [40]), at least 20 µM; in experiment [22] (setting [40]), 0.344 µM. Also, the Kd in [23] (setting [40]), in experiment [24] (setting [40]), in [25] (source organism: Coxiella burnetii Q321), in [26] (setting [40]), in [27] (setting [40]) and in experiment [28] (setting [40]) was at least 20 µM throughout. The Kd in [29] (setting [40]), in [30] (setting [40]), in experiment [31] (setting [40]) and in [32] (setting [40]) was at least 20 µM in each case.
With YVSVVSSHY, in experiment [33], the Kd came to 549 nM.
MLDQFGVSY: the dissociation constant Kd in experiment [17] (setting [41]) is 21 nM; in experiment [18] (setting [41]), at least 20 µM; in experiment [19] (setting [41]), at least 20 µM; in experiment [20] (setting [41]), at least 20 µM; in experiment [21] (setting [41]) it was at least 20 µM; in experiment [22] (setting [41]), at least 20 µM. The Kd in experiment [23] (setting [41]) is at least 20 µM; in experiment [24] (setting [41]), at least 20 µM; in experiment [34], at least 20 µM; in experiment [25] (setting [42]), at least 20 µM; in [26] (setting [41]), 0.143 µM; in experiment [35] (setting [42]), at least 20 µM. For the same sequence, the Kd in experiment [28] (setting [41]), in experiment [29] (setting [41]), in experiment [30] (setting [41]) and in [32] (setting [41]) was at least 20 µM throughout.
For the sequence NIDPEHLDY, the Kd in [17] (setting [43]) is 32.6 nM; in experiment [18] (setting [43]) it was at least 20 µM; in experiment [19] (setting [43]), at least 20 µM; in [20] (setting [43]), at least 20 µM; in [21] (setting [43]) it was at least 20 µM; in experiment [22] (setting [43]), at least 20 µM. The Kd in [23] (setting [43]), in experiment [24] (setting [43]), in experiment [26] (setting [43]), in experiment [35] (source organism: Rickettsia typhi str. Wilmington), in [27] (setting [43]) and in experiment [28] (setting [43]) was at least 20 µM each time. Also, the Kd in [29] (setting [43]), in experiment [30] (setting [43]), in [31] (setting [43]) and in experiment [32] (setting [43]) was at least 20 µM in each case.
Turning to YMQQVSEGL, the Kd in experiment [18] (setting [44]) was determined as 0.153 µM; in experiment [36], 2 nM; in experiment [23] (setting [44]), 1.38 µM; in experiment [2] (source organism: Orthomarburgvirus marburgense) it was 498 nM.
For ILRNPGFAL, the results for the Kd in experiment [1] (setting [45]) and in [2] (setting [45]) were at least 20000 nM and 211 nM, respectively.
With ARKHHTKID, the IC50 in experiment [13] (source organism: Variola virus) was 25 nM; in experiment [15] (source organism: Variola virus) it was 41.7 µM.
Take YLMAWKQVL: the Kd stood at 22 nM in experiment [37] (setting [46]) and 0.4 nM in experiment [4] (setting [46]).
In experiment [37] (source organism: human gammaherpesvirus 4), SQAPLPCVL returned a Kd of 554 nM.
On to RLPKRSVML, for which the 50% inhibitory concentration (IC50) in [12] (setting [47]) was 2.65 µM; in [38], 34.1 µM; in experiment [13] (setting [47]), 52.1 nM; in experiment [14] (setting [47]), 7.67 µM; in [15] (setting [47]), 15.2 µM; in experiment [16] (setting [47]), 12.7 µM.
With IFRLMRTNF, the IC50 turned out to be 39.8 nM in experiment [13] (setting [48]), 9.03 µM in experiment [14] (setting [48]), 55.2 µM in experiment [15] (setting [48]) and 2.18 µM in [16] (setting [48]).
On to FPQLSAIAL, for which the IC50 was at least 179 µM in [12] (setting [48]), 17800 nM in experiment [13] (setting [48]), 13.6 µM in experiment [14] (setting [48]) and at least 129 µM in [15] (setting [48]).
